Measurements as given in publication PMC3461310 (2013).
“And” between values parts separate entries of the source, which are not always exact repeats. Equal entries are not always repeated. Blank lines part the entries; values can stand above or below the binder they belong to.

How the values were obtained:
thrombin ([4′F]FPR-T) [1] = molecular target: thrombin ([4′F]FPR-T) (Homo sapiens, UniProt P00734, active site labeled with 4′-fluorescein-FPR); experiment: fluorescence equilibrium binding
thrombin ([4′F]FPR-T) [2] = molecular target: thrombin ([4′F]FPR-T) (Homo sapiens, UniProt P00734, active site labeled with 4′-fluorescein-FPR, heparin (T·Hep complex)); experiment: fluorescence equilibrium binding
thrombin ([4′F]FPR-T) [3] = molecular target: thrombin ([4′F]FPR-T) (Homo sapiens, UniProt P00734, active site labeled with 4′-fluorescein-FPR, heparin (T·(Hep)2 complex)); experiment: fluorescence equilibrium binding
thrombin ([6F]FFR-T) [4] = molecular target: thrombin ([6F]FFR-T) (Homo sapiens, UniProt P00734, active site labeled with 6-fluorescein-FFR, heparin (T·(Hep)2 complex)); experiment: fluorescence equilibrium binding
thrombin ([6F]FFR-T) [5] = molecular target: thrombin ([6F]FFR-T) (Homo sapiens, UniProt P00734, active site labeled with 6-fluorescein-FFR, heparin (T·Hep complex)); experiment: fluorescence equilibrium binding
thrombin = thrombin (Homo sapiens, UniProt P00734, heparin (1 and 50 μM)); experiment: inactivation kinetics with Hir-

Kd (thrombin ([4′F]FPR-T) [1]): 5000 nM
B1: prothrombin fragment 2 fragment 2 (protein)
chain: SEGSSVNLSPPLEQCVPDRGQQYQGRLAVTTHGLPCLAWASAQAKALSKHQDFNSAVQLVENFCRNPDGDEEGVWCYVAGKPGDFGYCDLNYCEEAVEEETGDGLDEDSDRAIEGRTATSEYQTFFNPR

Kd (thrombin ([4′F]FPR-T) [2]): 200 nM and 230 nM
Kd (thrombin ([4′F]FPR-T) [3]): 600 nM
Kd (thrombin ([6F]FFR-T) [4]): 140 nM
Kd (thrombin ([6F]FFR-T) [5]): 300 nM and 150 nM
Kd (thrombin): 40 nM
B2: heparin cofactor II (protein)
chain: GSKGPLDQLEKGGETAQSADPQWEQLNNKNLSMPLLPADFHKENTVTNDWIPEGEEDDDYLDLEKIFSEDDDYIDIVDSLSVSPTDSDVSAGNILQLFHGKSRIQRLNILNAKFAFNLYRVLKDQVNTFDNIFIAPVGISTAMGMISLGLKGETHEQVHSILHFKDFVNASSKYEITTIHNLFRKLTHRLFRRNFGYTLRSVNDLYIQKQFPILLDFKTKVREYYFAEAQIADFSDPAFISKTNNHIMKLTKGLIKDALENIDPATQMMILNCIYFKGSWVNKFPVEMTHNHNFRLNEREVVKVSMMQTKGNFLAANDQELDCDILQLEYVGGISMLIVVPHKMSGMKTLEAQLTPRVVERWQKSMTNRTREVLLPKFKLEKNYNLVESLKLMGIRMLFDKNGNMAGISDQRIAIDLFKHQGTITVNEEGTQATTVTTVGFMPLSTQVRFTVDRPFLFLIYEHRTSCLLFMGRVANPSRS
